For this assay, the target named is T1, CD20蛋白 (UniProt P11836, 297 amino acids) (human, UniProt P11836 1-297).
T1 construct: whole, on cells; Endogenous CD20 in formalin-fixed paraffin tissue sections (B-cell lymphoma, tonsil, appendix) detected by IHC. 'Human' is stated for CD20 in the abstract; The species of the tissues is not explicitly stated
T1 sequence (looked up): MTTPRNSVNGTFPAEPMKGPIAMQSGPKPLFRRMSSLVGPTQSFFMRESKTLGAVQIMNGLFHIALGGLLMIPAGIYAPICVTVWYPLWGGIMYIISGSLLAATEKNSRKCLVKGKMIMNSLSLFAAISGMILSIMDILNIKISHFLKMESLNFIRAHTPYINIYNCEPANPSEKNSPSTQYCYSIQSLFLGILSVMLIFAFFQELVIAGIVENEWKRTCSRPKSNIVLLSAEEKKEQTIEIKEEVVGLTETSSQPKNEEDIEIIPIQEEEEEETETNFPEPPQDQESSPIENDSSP
The assay can be described thus: IHC, appendix tissue (Fig. 5).

B1: 抗CD20蛋白单克隆抗体 (secreted by mouse hybridoma cell line AbM58020-32A8-PU, CGMCC NO.17491) (antibody, V domains shown)
VH: EVKLQESGPSLVKPGASVKISCKASGNTFTDYYMNWVRQSHGQSLEWIGRFIPSTAKTNYNHKFKDKATLTLDTSLSTAYMQLNSLTSEDSAVYYCRSDFAFWGQGTLVTVSA
VL: DILMTQSPLSLSITIGQPASISCKSSQSLLYSNGKTYLNWLLQRPGQSPKRLIYIVSKLDSGVPDRFTGSGSGTDFTLKISRVEAEDLGVYYCGQGTHYPPTFGGGTKLEIK
notes: also called AbM58020-32A8-PU的CD20; AbM58020-32A8-PU杂交瘤分泌抗体
For the molecule B1, the binding result was “binds”.

The record behind these values is CN111363043A (FUZHOU MAIXIN BIOTECHNOLOGY DEV CO LTD, dated 2020).
